These results are taken from the Immune Epitope Database (IEDB).

Common to all, as to assay: IEDB peptide-MHC binding, purified MHC/competitive/radioactivity; filed as Kd, often an IC50 or EC50 that approximates it; ≥ and ≤ were set here for values at or beyond the usual limits of such assays
For test [1], the target named is HLA-A*03:01.
For test [2], the target named is HLA-A*11:01.
Test [3] concerns the target HLA-A*68:01.
Test [4] concerns the target HLA-A*31:01.
The target of test [5] is HLA-A*33:01.
[6] abbreviates: source organism: SARS coronavirus Tor2.
The mark [7] stands for this setting: source organism: Vaccinia virus WR.
Setting [8] is: source organism: Vaccinia virus Copenhagen.
Where [9] appears, read: source organism: Dengue virus 4 Philippines/H241/1956.
[10] abbreviates: source organism: Triticum aestivum.
Setting [11] is: source organism: Mammarenavirus guanaritoense.
The mark [12] stands for this setting: source organism: Lassa virus Josiah.
[13] abbreviates: source organism: Mammarenavirus machupoense.
Setting [14] is: source organism: Dengue virus 1 Brazil/97-11/1997.
Where [15] appears, read: source organism: Dengue virus 3 Martinique/1243/1999.
Setting [16] is: source organism: Dengue virus 2 Jamaica/1409/1983.

Where only a bound is given, the exact number is not on record here.

Consider TSSTCMMCYK, for which the Kd was 22.9 nM in test [1] (setting [6]); 1.17 nM in test [2] (setting [6]); 4.93 nM in test [3] (setting [6]); 85.1 nM in test [4] (setting [6]); 441 nM in test [5] (setting [6]).
As to TVVRDFENY, the Kd in test [1] (setting [7]) is ≥ 63000 nM; in test [2] (setting [7]), 1210 nM; in test [3] (setting [7]), 1100 nM; in test [4] (setting [7]), ≥ 77900 nM; in test [5] (setting [7]), ≥ 77700 nM.
As for KSTSPTRTWK, the Kd in test [1] (setting [8]) was determined as 11.1 nM; in test [2] (setting [8]) it was 21.7 nM; in test [3] (setting [8]), 472 nM; in test [4] (setting [8]), 101 nM; in test [5] (setting [8]) it was 6860 nM.
Consider LMCHATFTTR, for which the Kd in test [4] (setting [9]) was found to be 12.7 nM; in test [5] (setting [9]), 97.1 nM.
As to HAIILHQQQK, the Kd was 1270 nM in test [1] (setting [10]); 1130 nM in test [2] (setting [10]); 10.4 nM in test [3] (setting [10]); 11000 nM in test [4] (setting [10]); ≥ 44400 nM in test [5] (setting [10]).
STMPLVMAWR: the Kd was 14.8 nM in test [2] (setting [9]), 15.2 nM in test [3] (setting [9]), 1.16 nM in test [4] (setting [9]) and 2.89 nM in test [5] (setting [9]).
For the sequence NSYSLIRLSH, the equilibrium dissociation constant (Kd) in test [1] (setting [11]) was 9960 nM; in test [2] (setting [11]), ≥ 24600 nM; in test [3] (setting [11]), 10200 nM; in test [4] (setting [11]) it was 9770 nM; in test [5] (setting [11]), 3250 nM.
As for YTYDRVDIYY, the Kd in test [1] (setting [7]) is 97.4 nM; in test [2] (setting [7]) it was 2.41 nM; in test [3] (setting [7]), 0.96 nM; in test [4] (setting [7]), 11000 nM; in test [5] (setting [7]) it was 1170 nM.
In the case of NYSKYWYLNH, the Kd in test [1] (setting [12]) was ≥ 70000 nM; in test [2] (setting [12]), ≥ 21800 nM; in test [3] (setting [12]) it was ≥ 70100 nM; in test [4] (setting [12]), 1480 nM; in test [5] (setting [12]) it was 863 nM.
In the case of EAVYGNIKHK, the Kd in test [1] (setting [7]) is 18700 nM; in test [2] (setting [7]) it was 11700 nM; in test [3] (setting [7]), 62.3 nM; in test [4] (setting [7]) it was 13900 nM; in test [5] (setting [7]) it was ≥ 70000 nM.
On the same counts, the results for KTYIDVNEEY are 1800 nM, 777 nM, 10500 nM, 1880 nM and ≥ 70000 nM.
For IAEYIAGLK, the Kd in test [1] (setting [7]) was determined as 63.3 nM; in test [2] (setting [7]), 147 nM; in test [3] (setting [7]), 1.27 nM; in test [4] (setting [7]) it was 8070 nM; in test [5] (setting [7]), 1320 nM.
Consider PCPLPHRLDR, for which the Kd was ≥ 70000 nM in test [1] (setting [11]); ≥ 69700 nM in test [2] (setting [11]); ≥ 31100 nM in test [3] (setting [11]); 2940 nM in test [4] (setting [11]); ≥ 21800 nM in test [5] (setting [11]).
Turning to EKFGHFCKYH, the Kd in test [1] (setting [13]) is ≥ 70000 nM; in test [2] (setting [13]) it was ≥ 69700 nM; in test [3] (setting [13]) it was ≥ 70100 nM; in test [4] (setting [13]), ≥ 32800 nM; in test [5] (setting [13]) it was ≥ 70000 nM.
Regarding NSTTDAEACY, the Kd was ≥ 70100 nM in test [1] (setting [7]); 17800 nM in test [2] (setting [7]); 7370 nM in test [3] (setting [7]); ≥ 70000 nM in test [4] (setting [7]); ≥ 70000 nM in test [5] (setting [7]).
For SIFKLTYQNK, the Kd in test [1] (setting [14]) stood at 15.2 nM; in test [2] (setting [14]) it was 65.9 nM.
On to FFLRKLTSR, for which the Kd is 47.7 nM in test [4] (setting [15]) and 46.6 nM in test [5] (setting [15]).
In the case of FFLSGRGLGK, in test [1] (source organism: Dengue virus 1 Nauru/West Pac/1974), the Kd is 12 nM.
With GVCGIRSTTR, the Kd in test [4] (setting [15]) came to 27.2 nM.
Regarding TALAFHLTTR, the Kd in test [3] (setting [14]) was 101 nM; in test [4] (setting [14]) it was ≥ 39800 nM.
Consider MLNIMNRRKR, for which the Kd in test [4] (setting [14]) was ≥ 60800 nM.
AINVLRGFR: in test [4] (setting [16]), the Kd amounted to 3.72 nM.
Consider LLNRFTMTHR, for which the Kd in test [4] (setting [15]) came out at 15.2 nM.
In the case of ATTFVTPMLR, the figures for the Kd in test [2] (setting [16]), in test [3] (setting [16]) and in test [4] (setting [16]) were 95.2 nM, 16.2 nM and 91.1 nM, respectively.
RKTFVELMRR: the Kd in test [4] (setting [14]) was 51.2 nM.
VTVASAAQR: in test [3] (setting [14]), the Kd was 48.7 nM.
For the sequence MWQLMYFHR, the figures for the Kd in test [4] (setting [14]) and in test [5] (setting [14]) were ≥ 24400 nM and 1.43 nM, respectively.
In the case of CTLPPLRYR, the Kd in test [4] (setting [16]) amounted to 2.9 nM; in test [5] (setting [16]), 12.1 nM.
As to CVYNMMGKR, the Kd in test [1] (setting [9]) is 63.4 nM; in test [3] (setting [9]) it was 117 nM; in test [4] (setting [9]) it was 137 nM.
Consider NWLARVGRER, for which the Kd in test [5] (setting [16]) amounted to 242 nM.
As for GLYGNGVVTK, in test [1] (setting [15]), the Kd is 3.65 nM.
Regarding ESALNDTWK, in test [3] (setting [16]), the Kd was 90.5 nM.
As for RTAIHSLYGR, the Kd in test [2] (setting [11]) came to 142 nM.
As to TVEAGRTLR, the Kd in test [3] (source organism: Dengue virus 2 Peru/IQT2913/1996) came out at 13 nM.
In the case of DTSECPNERR, the Kd in test [3] (setting [9]) was 124 nM.
Take NMLNIMNRRK: the Kd in test [1] (source organism: Dengue virus 1 Singapore/S275/1990) worked out at 181 nM.
Consider MSYTMCSGK, for which the results for the Kd in test [1] (setting [9]) and in test [3] (setting [9]) were 3.04 nM and 5.87 nM, respectively.
Turning to LLMHLVSLY, the Kd is 2.67 nM in test [1] (setting [7]), 7.11 nM in test [2] (setting [7]), 9.95 nM in test [3] (setting [7]) and ≥ 52500 nM in test [5] (setting [7]).
In the case of ETCVYNMMGK, the Kd in test [2] (setting [16]) was 1170 nM; in test [3] (setting [16]) it was 19.1 nM.
With ALFLEEMLR, in test [1] (setting [16]), the Kd came to 304 nM.
